One block for each molecule: values may come before it.
What was measured:
GmMSRB1 = biological target: T1, GmMSRB1 (Glycine max, UniProt C6TFD8); test: DTT-dependent MSR activity; assay type: biochemical; conditions: DTT as reductant
T1 construct: without predicted N-terminal chloroplast signal peptide (predicted TP length 45), pET21b His-tag, E. coli BL21(DE3), purified
T1 sequence (C6TFD8 46-202): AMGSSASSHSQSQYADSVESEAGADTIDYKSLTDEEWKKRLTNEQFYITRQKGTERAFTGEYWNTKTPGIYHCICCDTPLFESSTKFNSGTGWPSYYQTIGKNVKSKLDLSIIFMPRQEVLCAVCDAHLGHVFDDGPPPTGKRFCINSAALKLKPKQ

GmMSRB2 [1] = biological target: T2, GmMSRB2 (Glycine max, UniProt C6SXW1, C68S); test: DTT-dependent MSR activity; assay type: biochemical; conditions: DTT as reductant
T2 construct: full-length, pDEST17 His-tag, E. coli BL21(DE3), purified; cytosolic (no signal peptide predicted)
T2 sequence (C6SXW1 1-138 C68S): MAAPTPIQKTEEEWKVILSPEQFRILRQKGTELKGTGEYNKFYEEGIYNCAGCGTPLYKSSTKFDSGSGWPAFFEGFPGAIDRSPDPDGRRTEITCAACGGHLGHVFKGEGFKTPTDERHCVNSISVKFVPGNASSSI

GmMSRB4 = biological target: T3, GmMSRB4 (Glycine max, UniProt I1ME37); test: NADPH consumption, TRX-coupled; assay type: biochemical; conditions: 25 µM yeast TRX2, 2 µM TRX reductase, 200 µM NADPH; S/R mixture used, Km given as half of measured value; read-out: Free L-MetO / Km (μM)^c
T3 construct: gene LOC100784622; without predicted N-terminal chloroplast signal peptide (predicted TP length 67), pET21b His-tag, E. coli BL21(DE3), purified
T3 sequence (I1ME37 68-204): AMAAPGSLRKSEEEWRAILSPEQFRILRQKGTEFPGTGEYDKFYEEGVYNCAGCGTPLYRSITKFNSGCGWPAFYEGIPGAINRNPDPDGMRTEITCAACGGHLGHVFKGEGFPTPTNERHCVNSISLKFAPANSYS
Text: (§1) NADPH consumption, TRX-coupled on GmMSRB4

GmMSRB2 [2] = biological target: T4, GmMSRB2 (Glycine max, UniProt C6SXW1); test: NADPH consumption, TRX-coupled; assay type: biochemical; conditions: 25 µM yeast TRX2, 2 µM TRX reductase, 200 µM NADPH; S/R mixture used, Km given as half of measured value; read-out: Free L-MetO / Km (μM)^c
T4 construct: full-length, pDEST17 His-tag, E. coli BL21(DE3), purified; cytosolic (no signal peptide predicted)
T4 sequence (C6SXW1 1-138): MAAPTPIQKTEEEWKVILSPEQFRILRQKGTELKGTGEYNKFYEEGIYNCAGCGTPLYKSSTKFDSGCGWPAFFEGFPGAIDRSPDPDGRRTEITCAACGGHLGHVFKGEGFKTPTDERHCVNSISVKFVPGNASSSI
Text: (§2) NADPH consumption, TRX-coupled on GmMSRB2

[3] = substrate: CC(=O)N[C@@H](CC[S+](C)[O-])C(=O)O; test: NADPH consumption, TRX-coupled; assay type: biochemical, Glycine max; conditions: 25 µM yeast TRX2, 2 µM TRX reductase, 200 µM NADPH
Text: as §2

[4] = substrate: CC(=O)N[C@@H](CC[S+](C)[O-])C(=O)O; test: NADPH consumption, TRX-coupled; assay type: biochemical, Glycine max; conditions: 25 µM yeast TRX2, 2 µM TRX reductase, 200 µM NADPH; remark: listed apart in the source
Text: as §1

Molecule: CN(C)c1ccc(/N=N/c2ccc(S(=O)(=O)N[C@@H](CC[S@@+](C)[O-])C(=O)O)cc2)cc1 [dabsyl-MetO]
DTT-dependent MSR activity (GmMSRB1): GmMSRB1 was two-fold more efficient than GmMSRB2 or GmMSRB4 in reducing dabsylated Met-R-O
DTT-dependent MSR activity (GmMSRB2 [1]): the C68S GmMSRB2 mutant was active towards both protein-based and free MetO

Km (GmMSRB4): 1450 µM
Km (GmMSRB2 [2]): 2090 µM
Molecule: Free L-MetO

B1: GmMSRB2 (Glycine max) (protein)
chain: MAAPTPIQKTEEEWKVILSPEQFRILRQKGTELKGTGEYNKFYEEGIYNCAGCGTPLYKSSTKFDSGCGWPAFFEGFPGAIDRSPDPDGRRTEITCAACGGHLGHVFKGEGFKTPTDERHCVNSISVKFVPGNASSSI
notes: full-length, pDEST17 His-tag, E. coli BL21(DE3), purified; cytosolic (no signal peptide predicted)
Km [3]: 49 ± 5 µM
kcat [3]: 2.04 ± 0.06 s⁻¹
kcat/Km [3]: 42000 M⁻¹ s⁻¹

B2: GmMSRB4 (Glycine max) (protein)
chain: AMAAPGSLRKSEEEWRAILSPEQFRILRQKGTEFPGTGEYDKFYEEGVYNCAGCGTPLYRSITKFNSGCGWPAFYEGIPGAINRNPDPDGMRTEITCAACGGHLGHVFKGEGFPTPTNERHCVNSISLKFAPANSYS
notes: without predicted N-terminal chloroplast signal peptide (predicted TP length 67), pET21b His-tag, E. coli BL21(DE3), purified
Km [4]: 49 ± 6 µM
kcat [4]: 0.24 ± 0.01 s⁻¹
kcat/Km [4]: 5000 M⁻¹ s⁻¹

From paper PMC3680461, “Diversity of Plant Methionine Sulfoxide Reductases B and Evolution of a Form Specific for Free Methionine Sulfoxide” (PLoS ONE, 2013)
